Data taken from publication PMC5509742, “Structure of polyhydroxyalkanoate (PHA) synthase PhaC from Chromobacterium sp. USM2, producing biodegradable plastics” (Scientific Reports, 2017).

B1: catalytic domain of PhaC from Chromobacterium sp. USM2 (residues 175-567) (domain or fragment)
chain: not shown
notes: two additional vector-derived residues (Gly-Pro) identified at the N-terminus after PreScission cleavage; Class I PHA synthase PhaC, Chromobacterium sp; USM2, C-terminal catalytic (CAT) domain, residues 175-567 (1179 nucleotides, calc. 43.8 kDa); Cloned into the His-fusion vector pET47b(+); the His-tag was removed with PreScission protease; also called PhaCCs-CAT; mol A; source: E. coli Rosetta 2 …
B2: PHA synthase PhaC from Chromobacterium sp. USM2, full-length (enzyme)
chain: not shown
notes: two additional vector-derived residues (Gly-Pro) identified at the N-terminus after PreScission cleavage; Class I PHA synthase PhaC, Chromobacterium sp; USM2; full-length gene of 1704 nucleotides, calc; 63.4 kDa; Cloned into the His-fusion vector pET47b(+); the His-tag was removed with PreScission protease; also called PhaCCs; full-length PhaCCs; source: E. coli Rosetta 2 (DE3), purified (Ni-NTA, …)

What was measured:
[1] = molecular target: the molecule itself; assay: AUC; sedimentation velocity, 20 °C, 20 µM PhaCCs-CAT without DL-3HB-CoA, 10 mM Tris-HCl (pH 8.0), 100 mM NaCl, 3 mM β-ME; monomer to dimer
[2] = molecular target: the molecule itself; assay: AUC; sedimentation velocity, 20 °C, 20,000 rpm, 5 µM full-length PhaCCs without substrate, 10 mM Tris-HCl (pH 8.0), 100 mM NaCl, 3 mM β-ME; monomer to dimer
[3] = molecular target: the molecule itself; assay: AUC; sedimentation velocity, 20 °C, 20,000 rpm, 5 µM full-length PhaCCs with 50 µM DL-3HB-CoA (10-fold molar ratio), 10 mM Tris-HCl (pH 8.0), 100 mM NaCl, 3 mM β-ME

Row | Protein | stoichiometry N [1] | stoichiometry N [2] | stoichiometry N [3]
1 | B1 | 2 |  | 
2 | B2 |  | 2 | ~4
